Several values for one entry are separate records, joined by “and”; a condition that tells them apart may be missing. Equal entries are not always repeated.
Biological target: Mayaro virus (MAYV) capsid (C) protein, strain IQT4235 (Mayaro virus (strain IQT4235))
Assay: cryo-EM structure; purified mature infectious MAYV virions (5x10^10 PFU/mL, from Vero CCL81 cells) vitrified on Quantifoil R2/2 grids; 300 kV Titan Krios, single particle analysis with icosahedral symmetry, global resolution 4.4 Å; atomic model from a homology model on CHIKV (PDB 6NK5) refined into the map

Mayaro virus (MAYV) capsid (C) protein, strain IQT4235 (natural protein)
stoichiometry N: 6 and 5

From article PMC8144435
